B1: Hairpin Ribozyme (parent)
chain: GUCCUCUUUCACGUGCGCGUGAAAGAGAGAAGUGAACCAGAGAAACACACGUUGUGGUAUAUUACCUGGUA

Variants of B1 are the subject of this series. Nature of the series: self-cleavage, relative activity (ratio to wild type); higher = more cleavage; co-transcriptional.
With GUCCUCUUUCACGUGCGCGUGAAAGAGAGAAGUGAAUCAGAGAAACACACGUUGUGGUAUAUUACCUCGUA, the self-cleavage is 0.139.
The figure for GUCCUCUUUCACGUGCGCGUGAAAGAGAGAAGUGAAUCAGAGAAGCACACGUUGUGGUAUAUUACCUGGUA is 0.0764; for GUCCUCUUUCACGUGCGCGUGAAAGAGAGAAGUGAAGCAGAGAAACACACGUUCUGGUAUAUUACCUGGUA it is 0.149; for GUCCUCUUUCACGUGCGCGUGAAAGAGAGAAGUGAAACAGAGAAACACACGUUGUGGUAUAUUACCUAGUA it is 0.302.
In the case of GUCCUCUUUCACGUGCGCGUGAAAGAGAGAAGUGAAGCAGAGAAACACACGUAGUGGUAUAUUACCUGGUA it was 0.245; in that of GUCCUCUUUCACGUGCGCGUGAAAGAGAGAAGUGAAUCAAAGAAACACACGUUGUGGUAUAUUACCUGGUA, 0.183.
In the case of GUCCUCUUUCACGUGCGCGUGAAAGAGAGAAGUGAAUCAUAGAAACACACGUUGUGGUAUAUUACCUGGUA it was 0.178.
Take GUCCUCUUUCACGUGCGCGUGAAAGAGAGAAGUGAAUCAGUGAAACACACGUUGUGGUAUAUUACCUGGUA: the self-cleavage was determined as 0.969.
For the variant GUCCUCUUUCACGUGCGCGUGAAAGAGAGAAGUGAAUCAGAGACACACACGUUGUGGUAUAUUACCUGGUA, the self-cleavage was determined as 0.1.
Consider GUCCUCUUUCACGUGCGCGUGAAAGAGAGAAGUGAAUCAGAGAAACACUCGUUGUGGUAUAUUACCUGGUA, for which the self-cleavage came to 0.211.
Consider GUCCUCUUUCACGUGCGCGUGAAAGAGAGAAGUGAAACAGAGAAACACACGAUGUGGUAUAUUACCUGGUA, for which the self-cleavage amounted to 0.484.
As for GUCCUCUUUCACGUGCGCGUGAAAGAGAGAAGUGAAACAGAGAAACACACGUUGUGGUAUAUUAUCUGGUA, the self-cleavage was determined as 0.261.
For GUCCUCUUUCACGUGCGCGUGAAAGAGAGAAGUGAAACAGAGAAACACACGUUGUGGUAUAUUAACUGGUA, the self-cleavage was determined as 0.259.
The figure for GUCCUCUUUCACGUGCGCGUGAAAGAGAGAAGUGAAGCAGAGAAACACACGUUGUGGUAUGUUACCUGGUA is 0.155.
As for GUCCUCUUUCACGUGCGCGUGAAAGAGAGAAGUGAAUCAGAGAAACACACGUUGUGGUCUAUUACCUGGUA, the self-cleavage was 0.162.
In the case of GUCCUCUUUCACGUGCGCGUGAAAGAGAGAAGUGAAUCAGAGAAACACACGUUGUGGUGUAUUACCUGGUA it was 0.152.
The figure for GUCCUCUUUCACGUGCGCGUGAAAGAGAGAAGUGAAGCAGAGAAACACACGUUGUGGUAUAUUACAUGGUA is 0.207; for GUCCUCUUUCACGUGCGCGUGAAAGAGAGAAGUGAAUCAGAGAAACACACGUUGUGGUAUAUUCCCUGGUA it is 0.205; for GUCCUCUUUCACGUGCGCGUGAAAGAGAGAAGUGAAGCAGAGAUACACACGUUGUGGUAUAUUACCUGGUA it is 0.118.
In the case of GUCCUCUUUCACGUGCGCGUGAAAGAGAGAAGUGAAGCAGAGAGACACACGUUGUGGUAUAUUACCUGGUA it was 0.185.
Regarding GUCCUCUUUCACGUGCGCGUGAAAGAGAGAAGUGAAGCAAAGAAACACACGUUGUGGUAUAUUACCUGGUA, the self-cleavage is 0.0652.
The figure for GUCCUCUUUCACGUGCGCGUGAAAGAGAGAAGUGAAGCAGAGAAACAUACGUUGUGGUAUAUUACCUGGUA is 0.144; for GUCCUCUUUCACGUGCGCGUGAAAGAGAGAAGUGAAACAGAAAAACACACGUUGUGGUAUAUUACCUGGUA it is 0.124; for GUCCUCUUUCACGUGCGCGUGAAAGAGAGAAGUGAAGCAGAGAAACACACGGUGUGGUAUAUUACCUGGUA it is 0.377.
In the case of GUCCUCUUUCACGUGCGCGUGAAAGAGAGAAGUGAAACAGAGAAACACACGUUGUGGUACAUUACCUGGUA it was 0.337; in that of GUCCUCUUUCACGUGCGCGUGAAAGAGAGAAGUGAAGCAGAGAAACACCCGUUGUGGUAUAUUACCUGGUA, 0.348.
For the variant GUCCUCUUUCACGUGCGCGUGAAAGAGAGAAGUGAAUCAGAUAAACACACGUUGUGGUAUAUUACCUGGUA, the self-cleavage is 0.27.
In the case of GUCCUCUUUCACGUGCGCGUGAAAGAGAGAAGUGAAGCAGAGAAACACACGUUGUGGUAUAUUAGCUGGUA it was 0.225.
In the case of GUCCUCUUUCACGUGCGCGUGAAAGAGAGAAGUGAAACAGAGAAACACACGUUGUCGUAUAUUACCUGGUA, the self-cleavage came to 0.174.
The figure for GUCCUCUUUCACGUGCGCGUGAAAGAGAGAAGUGAAUCAGAGAAACACACCUUGUGGUAUAUUACCUGGUA is 0.689; for GUCCUCUUUCACGUGCGCGUGAAAGAGAGAAGUGAAUCAGAGAAACACACAUUGUGGUAUAUUACCUGGUA it is 0.967; for GUCCUCUUUCACGUGCGCGUGAAAGAGAGAAGUGAAGCAGAGAAACACACGUUGUGGGAUAUUACCUGGUA it is 0.136.
In the case of GUCCUCUUUCACGUGCGCGUGAAAGAGAGAAGUGAAUCAGAGAAACACACGUUGUAGUAUAUUACCUGGUA it was 0.156; in that of GUCCUCUUUCACGUGCGCGUGAAAGAGAGAAGUGAAGCAGAGAAACACACGUUGUAGUAUAUUACCUGGUA, 0.204.
In the case of GUCCUCUUUCACGUGCGCGUGAAAGAGAGAAGUGAAACAGAGAAACACACGUUGCGGUAUAUUACCUGGUA it was 0.1.
For GUCCUCUUUCACGUGCGCGUGAAAGAGAGAAGUGAAUCUGAGAAACACACGUUGUGGUAUAUUACCUGGUA, the self-cleavage was 0.208.
The figure for GUCCUCUUUCACGUGCGCGUGAAAGAGAGAAGUGAAACAGAGAAACACACGUUGUGGUAUAGUACCUGGUA is 0.127; for GUCCUCUUUCACGUGCGCGUGAAAGAGAGAAGUGAAGCAGAGAAACACACCUUGUGGUAUAUUACCUGGUA it is 0.469.
The figure for GUCCUCUUUCACGUGCGCGUGAAAGAGAGAAGUGAAUCAGAGAAACAGACGUUGUGGUAUAUUACCUGGUA is 0.0435; for GUCCUCUUUCACGUGCGCGUGAAAGAGAGAAGUGAAGCAGAGAAACACACGUUGUGGUAUAUUUCCUGGUA it is 0.192; for GUCCUCUUUCACGUGCGCGUGAAAGAGAGAAGUGAAGCAGAGAAACACACGUUGUGGUAUAUUCCCUGGUA it is 0.136.
Regarding GUCCUCUUUCACGUGCGCGUGAAAGAGAGAAGUGAAGCCGAGAAACACACGUUGUGGUAUAUUACCUGGUA, the self-cleavage worked out at 0.163.
For GUCCUCUUUCACGUGCGCGUGAAAGAGAGAAGUGAAGCAGAGAAACACACGUUGUGGUAUAAUACCUGGUA, the self-cleavage amounted to 0.153.
With GUCCUCUUUCACGUGCGCGUGAAAGAGAGAAGUGAAGCAGAGAAACGCACGUUGUGGUAUAUUACCUGGUA, the self-cleavage was 0.15.
Take GUCCUCUUUCACGUGCGCGUGAAAGAGAGAAGUGAAUGAGAGAAACACACGUUGUGGUAUAUUACCUGGUA: the self-cleavage was found to be 0.0604.
As to GUCCUCUUUCACGUGCGCGUGAAAGAGAGAAGUGAAUUAGAGAAACACACGUUGUGGUAUAUUACCUGGUA, the self-cleavage is 0.201.
In the case of GUCCUCUUUCACGUGCGCGUGAAAGAGAGAAGUGAAACAGAGAAACACAAGUUGUGGUAUAUUACCUGGUA it was 0.124; in that of GUCCUCUUUCACGUGCGCGUGAAAGAGAGAAGUGAAACAGAGAAACACAGGUUGUGGUAUAUUACCUGGUA, 0.128; in that of GUCCUCUUUCACGUGCGCGUGAAAGAGAGAAGUGAAGCAGAGAAACACACGUUGUGGUAUAUUACCUUGUA, 0.189.
For GUCCUCUUUCACGUGCGCGUGAAAGAGAGAAGUGAAACAGAGAAACACACAUUGUGGUAUAUUACCUGGUA, the self-cleavage was determined as 0.535.
The figure for GUCCUCUUUCACGUGCGCGUGAAAGAGAGAAGUGAAACAGAGAAACACACGUUGUGGUAUAUUACCUGGAA is 0.368; for GUCCUCUUUCACGUGCGCGUGAAAGAGAGAAGUGAAACAGAGAAACACACGUUGUGGUAUAUUACCUGGCA it is 0.438.
In the case of GUCCUCUUUCACGUGCGCGUGAAAGAGAGAAGUGAAGCAGAGAAACACACGUUGCGGUAUAUUACCUGGUA it was 0.178; in that of GUCCUCUUUCACGUGCGCGUGAAAGAGAGAAGUGAAGCAGAGAAACACACGUUGAGGUAUAUUACCUGGUA, 0.226.
The figure for GUCCUCUUUCACGUGCGCGUGAAAGAGAGAAGUGAAUCAGAGAAACUCACGUUGUGGUAUAUUACCUGGUA is 0.177; for GUCCUCUUUCACGUGCGCGUGAAAGAGAGAAGUGAAUCAGAGAAACGCACGUUGUGGUAUAUUACCUGGUA it is 0.167.
Consider GUCCUCUUUCACGUGCGCGUGAAAGAGAGAAGUGAAUCAGAGGAACACACGUUGUGGUAUAUUACCUGGUA, for which the self-cleavage is 0.146.
In the case of GUCCUCUUUCACGUGCGCGUGAAAGAGAGAAGUGAAACAGAGAAACACACGUUGUGGUAUAUAACCUGGUA, the self-cleavage came out at 0.163.
In the case of GUCCUCUUUCACGUGCGCGUGAAAGAGAGAAGUGAAACAGAGAAACACACGUUGUGGUAUAUCACCUGGUA, the self-cleavage is 0.131.
Turning to GUCCUCUUUCACGUGCGCGUGAAAGAGAGAAGUGAAACAGAGAAACACACGUUGUGGUAUAUUACCUGAUA, the self-cleavage is 0.434.
The figure for GUCCUCUUUCACGUGCGCGUGAAAGAGAGAAGUGAAACAGAGAAACACACGUUAUGGUAUAUUACCUGGUA is 0.187.
The figure for GUCCUCUUUCACGUGCGCGUGAAAGAGAGAAGUGAAACAGAGAAACACACGUUCUGGUAUAUUACCUGGUA is 0.114; for GUCCUCUUUCACGUGCGCGUGAAAGAGAGAAGUGAAACAGAGAAACACACGUUUUGGUAUAUUACCUGGUA it is 0.269.
In the case of GUCCUCUUUCACGUGCGCGUGAAAGAGAGAAGUGAAACAGAGAAACACACGUUGUGGUAUAUUACCCGGUA, the self-cleavage stood at 0.0944.
The figure for GUCCUCUUUCACGUGCGCGUGAAAGAGAGAAGUGAAUCAGAGAAAGACACGUUGUGGUAUAUUACCUGGUA is 0.13.
For GUCCUCUUUCACGUGCGCGUGAAAGAGAGAAGUGAAUCAGAGAAAAACACGUUGUGGUAUAUUACCUGGUA, the self-cleavage was 0.121.
Regarding GUCCUCUUUCACGUGCGCGUGAAAGAGAGAAGUGAAGCAGAGAAACACACGUUGUGCUAUAUUACCUGGUA, the self-cleavage is 0.21.
The figure for GUCCUCUUUCACGUGCGCGUGAAAGAGAGAAGUGAAUCAGAGAAACACACGUUGUGGUAUCUUACCUGGUA is 0.146.
Regarding GUCCUCUUUCACGUGCGCGUGAAAGAGAGAAGUGAAUCAGAGAAACACACGUUGUGGUAUGUUACCUGGUA, the self-cleavage was 0.126.
For the variant GUCCUCUUUCACGUGCGCGUGAAAGAGAGAAGUGAAUCAGAGAAACACACGUUGUGGUAUUUUACCUGGUA, the self-cleavage was 0.248.
The figure for GUCCUCUUUCACGUGCGCGUGAAAGAGAGAAGUGAAGCAGAGAAACACACGUUGUGGUAUAUUACCUGGGA is 0.405.
As for GUCCUCUUUCACGUGCGCGUGAAAGAGAGAAGUGAAGCAGAGAAACACACGUUGUGGUAUAUUACCUGGUG, the self-cleavage amounted to 0.341.
With GUCCUCUUUCACGUGCGCGUGAAAGAGAGAAGUGAAUCAGAGAAACACACGUUGUGGUAUAUUACCUGGUU, the self-cleavage turned out to be 0.557.
In the case of GUCCUCUUUCACGUGCGCGUGAAAGAGAGAAGUGAAUCAGAGAAACACACGUUGUGGUAUAUUACCUGGUC it was 0.93; in that of GUCCUCUUUCACGUGCGCGUGAAAGAGAGAAGUGAAGUAGAGAAACACACGUUGUGGUAUAUUACCUGGUA, 0.128; in that of GUCCUCUUUCACGUGCGCGUGAAAGAGAGAAGUGAAGCAGAUAAACACACGUUGUGGUAUAUUACCUGGUA, 0.0921.

The values above are taken from the RNAGym collection of RNA variant scans (doi:10.7554/elife.80360).
